Assay results: patent US20170008928A1, “NOVEL PEPTIDES AND PEPTIDE DERIVATIVES AND USES THEREOF” (Novo Nordisk A/S, priority 2015, published 2017)
Starred links: 1 amine or outer side, 2 acyl side, 3 side chain; linkers in the order of their positions; H or OH if unused. Non-standard residues stand in square brackets, D forms with d. No end group written: not given here. *: point of attachment. Phe(4-CH2SO3H) = N[C@@H](Cc1ccc(CS(=O)(=O)O)cc1)C(=O)O; sY = N[C@@H](Cc1ccc(OS(=O)(=O)O)cc1)C(=O)O; C18 diacid = O=C(O)CCCCCCCCCCCCCCCCC(=O)*; γGlu = O=C(O)[C@H](CCC(=O)[*:2])N[*:1]; βAsp = O=C(O)[C@H](CC(=O)[*:2])N[*:1]; Met(O2) = CS(=O)(=O)CC[C@H](N)C(=O)O; NMeF = CN[C@@H](Cc1ccccc1)C(=O)O; dNMeD = CN[C@H](CC(=O)O)C(=O)O; Nle = CCCC[C@H](N)C(=O)O; AEEA = NCCOCCOCC(=O)O

T1: human cholecystokinin-2 receptor (human, UniProt P32239 1-447)
T1 construct: whole, on cells; also called CCK-2R; CCK-2 receptor
T1 sequence (looked up): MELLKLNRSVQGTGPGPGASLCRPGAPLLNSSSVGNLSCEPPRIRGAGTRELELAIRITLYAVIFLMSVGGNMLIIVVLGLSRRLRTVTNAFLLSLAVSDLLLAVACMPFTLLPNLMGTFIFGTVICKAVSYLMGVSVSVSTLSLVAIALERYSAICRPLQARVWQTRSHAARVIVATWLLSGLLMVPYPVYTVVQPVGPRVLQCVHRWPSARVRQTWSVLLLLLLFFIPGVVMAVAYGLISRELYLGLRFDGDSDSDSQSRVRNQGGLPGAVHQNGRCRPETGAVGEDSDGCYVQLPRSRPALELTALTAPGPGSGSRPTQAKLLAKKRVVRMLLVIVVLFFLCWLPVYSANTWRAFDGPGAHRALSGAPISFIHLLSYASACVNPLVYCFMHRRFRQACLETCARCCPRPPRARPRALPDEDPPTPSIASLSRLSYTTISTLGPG

T2: human cholecystokinin-1 receptor (human, UniProt P32238 1-428)
T2 construct: whole, on cells; also called CCK-1R; CCK-1 receptor
T2 sequence (looked up): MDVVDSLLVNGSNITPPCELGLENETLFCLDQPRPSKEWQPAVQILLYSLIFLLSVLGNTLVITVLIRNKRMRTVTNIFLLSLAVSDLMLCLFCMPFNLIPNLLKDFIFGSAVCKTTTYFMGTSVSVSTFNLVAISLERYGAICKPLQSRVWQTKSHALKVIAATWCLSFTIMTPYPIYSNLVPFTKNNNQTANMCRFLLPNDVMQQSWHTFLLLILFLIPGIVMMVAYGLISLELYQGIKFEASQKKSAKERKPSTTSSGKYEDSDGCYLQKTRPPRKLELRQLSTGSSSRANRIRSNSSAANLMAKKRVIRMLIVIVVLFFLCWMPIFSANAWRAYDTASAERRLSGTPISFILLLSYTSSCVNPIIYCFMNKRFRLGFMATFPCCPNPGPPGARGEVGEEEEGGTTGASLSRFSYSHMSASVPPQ


Tests used:
[1] = molecular target: T1, human cholecystokinin-2 receptor; assay: SPA competition vs [125I]-CCK-8s, membranes
Method: (§1) CCK receptor binding assays were performed in 96-well Optiplates (Cat #6005290, PerkinElmer, Waltham, Mass., USA) in a total volume of 200 μl per well.
(§2) The plates were sealed and incubated in the dark at +22° C. for 2 hours on a IKA MTS plate shaker (IKA-Werke D-79219 Staufen) set at 300 rpm and thereafter centrifuged at 1500 rpm for 10 minutes in a Heraeus Multifuge 3s centrifuge. SPA bead light emission was measured in a TopCount NXT (PerkinElmer) for 2 min/well after a delay of 60 min.

[2] = molecular target: T2, human cholecystokinin-1 receptor; assay: SPA competition vs [125I]-CCK-8s, membranes
Method: as §1, §2

[3] = molecular target: T1, human cholecystokinin-2 receptor; assay: cell-based or functional assay
[4] = molecular target: T2, human cholecystokinin-1 receptor; assay: cell-based or functional assay

Binder	IC50 [1]	IC50 [2]	EC50 (CCK-2R) [3]	EC50 (CCK-1R) [4]
{C18 diacid-γGlu-AEEA-AEEA}-D[sY][Nle]GW[Nle][dNMeD]W-NH2 (SMILES CCCC[C@H](NC(=O)[C@H](Cc1ccc(OS(=O)(=O)O)cc1)NC(=O)[C@H](CC(=O)O)NC(=O)COCCOCCNC(=O)COCCOCCNC(=O)CC[C@H](NC(=O)CCCCCCCCCCCCCCCCC(=O)O)C(=O)O)C(=O)NCC(=O)N[C@@H](Cc1c[nH]c2ccccc12)C(=O)N[C@@H](CCCC)C(=O)N(C)[C@H](CC(=O)O)C(=O)N[C@@H](Cc1c[nH]c2ccccc12)C(N)=O, X = Nle or Nal)	3000 nM	0.91 nM	> 1000 nM	0.24 nM
{C18 diacid-γGlu-AEEA-AEEA}-K[AEEA]D[Phe(4-CH2SO3H)][Nle]GW[Nle][dNMeD][NMeF]-NH2 (X = Nle or Nal)	7400 nM	0.081 nM		
{C18 diacid-γGlu-AEEA-AEEA}-[βAsp][Phe(4-CH2SO3H)][Nle]GW[Nle][dNMeD][NMeF]-NH2 (SMILES CCCC[C@H](NC(=O)[C@H](Cc1ccc(CS(=O)(=O)O)cc1)NC(=O)C[C@H](NC(=O)COCCOCCNC(=O)COCCOCCNC(=O)CC[C@H](NC(=O)CCCCCCCCCCCCCCCCC(=O)O)C(=O)O)C(=O)O)C(=O)NCC(=O)N[C@@H](Cc1c[nH]c2ccccc12)C(=O)N[C@@H](CCCC)C(=O)N(C)[C@H](CC(=O)O)C(=O)N(C)[C@@H](Cc1ccccc1)C(N)=O, X = Nle or Nal)		0.063 nM		0.36 nM
D[Phe(4-CH2SO3H)][Nle]GW[Nle][dNMeD][NMeF]-NH2 (N-terminus assumed; SMILES CCCC[C@H](NC(=O)[C@H](Cc1ccc(CS(=O)(=O)O)cc1)NC(=O)[C@@H](N)CC(=O)O)C(=O)NCC(=O)N[C@@H](Cc1c[nH]c2ccccc12)C(=O)N[C@@H](CCCC)C(=O)N(C)[C@H](CC(=O)O)C(=O)N(C)[C@@H](Cc1ccccc1)C(N)=O, X = Nle or Nal) [Asp-Phe(4-sulfomethyl)-Nle-Gly-Trp-Nle-DMeAsp-MePhe-amide]		0.046 nM	> 1000 nM	0.25 nM
{C18 diacid-γGlu-AEEA-AEEA}-D[sY]AGW[Nle][dNMeD][NMeF]-NH2 (SMILES CCCC[C@H](NC(=O)[C@H](Cc1c[nH]c2ccccc12)NC(=O)CNC(=O)[C@H](C)NC(=O)[C@H](Cc1ccc(OS(=O)(=O)O)cc1)NC(=O)[C@H](CC(=O)O)NC(=O)COCCOCCNC(=O)COCCOCCNC(=O)CC[C@H](NC(=O)CCCCCCCCCCCCCCCCC(=O)O)C(=O)O)C(=O)N(C)[C@H](CC(=O)O)C(=O)N(C)[C@@H](Cc1ccccc1)C(N)=O, X = Nle or Nal)	280 nM	0.068 nM	97 nM	0.22 nM
D[sY]KGW[Nle][dNMeD][NMeF]-NH2 (N-terminus assumed; SMILES CCCC[C@H](NC(=O)[C@H](Cc1c[nH]c2ccccc12)NC(=O)CNC(=O)[C@H](CCCCN)NC(=O)[C@H](Cc1ccc(OS(=O)(=O)O)cc1)NC(=O)[C@@H](N)CC(=O)O)C(=O)N(C)[C@H](CC(=O)O)C(=O)N(C)[C@@H](Cc1ccccc1)C(N)=O, X = Nle or Nal) [Asp-sTyr-Lys-Gly-Trp-Nle-DMeAsp-MePhe-amide]		0.03 nM	> 1000 nM	0.26 nM
{C18 diacid-γGlu-AEEA-AEEA}-D[sY]FGW[Nle][dNMeD][NMeF]-NH2 (SMILES CCCC[C@H](NC(=O)[C@H](Cc1c[nH]c2ccccc12)NC(=O)CNC(=O)[C@H](Cc1ccccc1)NC(=O)[C@H](Cc1ccc(OS(=O)(=O)O)cc1)NC(=O)[C@H](CC(=O)O)NC(=O)COCCOCCNC(=O)COCCOCCNC(=O)CC[C@H](NC(=O)CCCCCCCCCCCCCCCCC(=O)O)C(=O)O)C(=O)N(C)[C@H](CC(=O)O)C(=O)N(C)[C@@H](Cc1ccccc1)C(N)=O, X = Nle or Nal)	5600 nM	0.065 nM	390 nM	0.41 nM
{C18 diacid-γGlu-AEEA-AEEA}-D[sY]SGW[Nle][dNMeD][NMeF]-NH2 (SMILES CCCC[C@H](NC(=O)[C@H](Cc1c[nH]c2ccccc12)NC(=O)CNC(=O)[C@H](CO)NC(=O)[C@H](Cc1ccc(OS(=O)(=O)O)cc1)NC(=O)[C@H](CC(=O)O)NC(=O)COCCOCCNC(=O)COCCOCCNC(=O)CC[C@H](NC(=O)CCCCCCCCCCCCCCCCC(=O)O)C(=O)O)C(=O)N(C)[C@H](CC(=O)O)C(=O)N(C)[C@@H](Cc1ccccc1)C(N)=O, X = Nle or Nal)	4700 nM	0.058 nM	940 nM	
{C18 diacid-γGlu-AEEA-AEEA}-D[sY]KGW[Nle][dNMeD][NMeF]-NH2 (X = Nle or Nal)		0.099 nM	310 nM	0.36 nM
D[sY]AGW[Nle][dNMeD][NMeF]-NH2 (N-terminus assumed; SMILES CCCC[C@H](NC(=O)[C@H](Cc1c[nH]c2ccccc12)NC(=O)CNC(=O)[C@H](C)NC(=O)[C@H](Cc1ccc(OS(=O)(=O)O)cc1)NC(=O)[C@@H](N)CC(=O)O)C(=O)N(C)[C@H](CC(=O)O)C(=O)N(C)[C@@H](Cc1ccccc1)C(N)=O, X = Nle or Nal) [Asp-sTyr-Ala-Gly-Trp-Nle-DMeAsp-MePhe-amide]		0.055 nM	> 1000 nM	0.16 nM
D[sY]SGW[Nle][dNMeD][NMeF]-NH2 (N-terminus assumed; SMILES CCCC[C@H](NC(=O)[C@H](Cc1c[nH]c2ccccc12)NC(=O)CNC(=O)[C@H](CO)NC(=O)[C@H](Cc1ccc(OS(=O)(=O)O)cc1)NC(=O)[C@@H](N)CC(=O)O)C(=O)N(C)[C@H](CC(=O)O)C(=O)N(C)[C@@H](Cc1ccccc1)C(N)=O, X = Nle or Nal) [Asp-sTyr-Ser-Gly-Trp-Nle-DMeAsp-MePhe-amide]	3600 nM	0.035 nM	> 1000 nM	0.19 nM
[sY][Nle]GW[Nle][dNMeD][NMeF]-NH2 (N-terminus assumed; SMILES CCCC[C@H](NC(=O)[C@@H](N)Cc1ccc(OS(=O)(=O)O)cc1)C(=O)NCC(=O)N[C@@H](Cc1c[nH]c2ccccc12)C(=O)N[C@@H](CCCC)C(=O)N(C)[C@H](CC(=O)O)C(=O)N(C)[C@@H](Cc1ccccc1)C(N)=O, X = Nle or Nal) [sTyr-Nle-Gly-Trp-Nle-DMeAsp-MePhe-amide]		0.06 nM	> 1000 nM	0.33 nM
{C18 diacid-γGlu-AEEA-AEEA}-D[sY]LGW[Met(O2)][dNMeD][NMeF]-NH2		0.64 nM	> 1000 nM	0.14 nM
{C18 diacid-γGlu-AEEA-AEEA}-E[sY]LGWQ[dNMeD][NMeF]-NH2		0.097 nM	> 1000 nM	0.22 nM
